Test results from publication PMC5979328, “Establishing a Split Luciferase Assay for Proteinkinase G (PKG) Interaction Studies” (International Journal of Molecular Sciences, 2018).

T1: cGKIα-CBRC (proteinkinase G isoform Iα fused at its C-terminus to the C-terminal fragment of click beetle red … (UniProt P00516 1-671))
T1 construct: cGMP-dependent protein kinase I, alpha isoform (cGKIα, PKGIα); also called PKGIα; cGMP dependent kinase Iα; source: COS-7 cells, calcium phosphate transfection, in living cells; not shown: CBRC (click beetle red luciferase aa 395-542; joined by a 17-residue Gly/Ser linker), C-terminal, kept
T1 sequence (looked up): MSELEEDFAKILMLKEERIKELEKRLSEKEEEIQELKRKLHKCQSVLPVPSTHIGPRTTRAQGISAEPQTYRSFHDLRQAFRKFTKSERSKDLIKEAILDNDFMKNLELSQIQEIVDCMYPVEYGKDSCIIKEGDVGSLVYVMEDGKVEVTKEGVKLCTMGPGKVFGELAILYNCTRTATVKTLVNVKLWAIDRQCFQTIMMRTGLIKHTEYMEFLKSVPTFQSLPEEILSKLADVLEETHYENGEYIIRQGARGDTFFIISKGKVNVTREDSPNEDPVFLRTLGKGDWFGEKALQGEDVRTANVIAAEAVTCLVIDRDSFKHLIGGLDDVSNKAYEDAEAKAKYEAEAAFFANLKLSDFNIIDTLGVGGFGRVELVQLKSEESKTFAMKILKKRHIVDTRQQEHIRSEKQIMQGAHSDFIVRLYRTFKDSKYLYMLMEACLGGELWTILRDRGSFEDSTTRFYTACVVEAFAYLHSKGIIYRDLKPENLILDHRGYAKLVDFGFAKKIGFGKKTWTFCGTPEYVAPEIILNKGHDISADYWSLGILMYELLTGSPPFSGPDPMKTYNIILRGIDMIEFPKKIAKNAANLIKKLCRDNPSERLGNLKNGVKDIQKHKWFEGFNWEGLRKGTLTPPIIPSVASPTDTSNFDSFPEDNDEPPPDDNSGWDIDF


What was measured:
[1] = molecular target: T1, cGKIα-CBRC (proteinkinase G isoform Iα …); assay: split reporter (BiFC, NanoBiT); click beetle red luciferase complementation (CBRN/CBRC) in co-transfected COS-7 cells, 15 µg DNA, vector ratios 1:25 to 1:100 (mostly 1:50); cells untreated or stimulated for 24 h with 8-Br-cGMP (0.5-2.5 mM), 8-pCPT-cGMP (100-500 µM) or 8-Br-cAMP (0.125-1 mM); Bright-Glo reagent, plate reader, RLU; conditions: partners not purified
[2] = molecular target: the molecule itself; assay: Western blot of monomer and dimer under non-reducing conditions; primary mesangial cells, control or stimulated with H2O2, non-reducing conditions (Figure S3)

fold signal amplification (100 µM 8-pCPT-cGMP, treated/untreated) [1] [fold]	fold signal amplification (200 µM 8-pCPT-cGMP, treated/untreated) [1] [fold]	fold signal amplification (0.5 mM 8-Br-cGMP, treated/untreated) [1] [fold]	fold signal amplification (500 µM 8-pCPT-cGMP, treated/untreated) [1] [fold]	fold signal amplification (1 mM 8-Br-cGMP, 24 h, against basal luminescence) [1] [fold]	fold signal amplification (1 mM 8-Br-cGMP, treated/untreated) [1] [fold]	fold signal amplification (2.5 mM 8-Br-cGMP, treated/untreated) [1] [fold]	Binder	stoichiometry N [2]
3.5	3.8	2.2	3.9	~3.5	3.6	2.8	CBRN-RGS2 (regulator of G-protein signaling 2 fused at its N-terminus to the N-terminal fragment of click beetle red luciferase) (natural protein, UniProt P41220 1-211, looked up, regulator of G-protein signaling 2 (RGS2); cDNA from pCMV6_RGS2 (OriGene); source: COS-7 cells, calcium phosphate transfection, in living cells; not shown: CBRN (click beetle red luciferase aa 1-416; joined by a 17-residue Gly/Ser linker), N-terminal, kept) MQSAMFLAVQHDCRPMDKSAGSGHKSEEKREKMKRTLLKDWKTRLSYFLQNSSTPGKPKTGKKSKQQAFIKPSPEEAQLWSEAFDELLASKYGLAAFRAFLKSEFCEENIEFWLACEDFKKTKSPQKLSSKARKIYTDFIEKEAPKEINIDFQTKTLIAQNIQEATSGCFTTAQKRVYSLMENNSYPRFLESEFYQDLCKKPQITTEPHAT	
							cGKIα in primary mesangial cells (enzyme, UniProt P0C605 1-671, looked up, cGMP-dependent protein kinase I, alpha isoform, in primary mesangial cells; also called the kinase; PKGIα) MSELEEDFAKILMLKEERIKELEKRLSEKEEEIQELKRKLHKCQSVLPVPSTHIGPRTTRAQGISAEPQTYRSFHDLRQAFRKFTKSERSKDLIKEAILDNDFMKNLELSQIQEIVDCMYPVEYGKDSCIIKEGDVGSLVYVMEDGKVEVTKEGVKLCTMGPGKVFGELAILYNCTRTATVKTLVNVKLWAIDRQCFQTIMMRTGLIKHTEYMEFLKSVPTFQSLPDEILSKLADVLEETHYENGEYIIRQGARGDTFFIISKGQVNVTREDSPSEDPVFLRTLGKGDWFGEKALQGEDVRTANVIAAEAVTCLVIDRDSFKHLIGGLDDVSNKAYEDAEAKAKYEAEAAFFANLKLSDFNIIDTLGVGGFGRVELVQLKSEESKTFAMKILKKRHIVDTRQQEHIRSEKQIMQGAHSDFIVRLYRTFKDSKYLYMLMEACLGGELWTILRDRGSFEDSTTRFYTACVVEAFAYLHSKGIIYRDLKPENLILDHRGYAKLVDFGFAKKIGFGKKTWTFCGTPEYVAPEIILNKGHDISADYWSLGILMYELLTGSPPFSGPDPMKTYNIILRGIDMIEFPKKIAKNAANLIKKLCRDNPSERLGNLKNGVKDIQKHKWFEGFNWEGLRKGTLTPPIIPSVASPTDTSNFDSFPEDSDEPPPDDNSGWDIDF	2
